Measurements from US20250027068.
Residue numbers refer to the chain shown, from its start.

Target: pooled human IgG

B1: PRT-535 (protein)
chain: MANQEIRYSGDSEWANKKVWVYGITPPEEKAWFYSTYYLPWKKEYGWYDCNKRNPTADGMMCWAATASNLMHWWIAQNKEYIDLYGDKYKGPDKINFNGEQMFDVKEYIDPLDKPQESDIFQCFIDKAFADLSTKHEAGKGDEGINWFIHGIIPSYPAHGPTPVKLRYPYNPAGYFKDVFPRGDGVVLLGNNGDFKELGKERFNETIKDALANKKGIGLSIGPVNVRSSHVVTMWGAEFDENGDVSYIYMADNNDRWGVGCIRYQIVYVEGGTYTCYKTEIIGSDRPIPINRLVTLELGEEYWKQTNLEHHHHHH
- Enzyme Activity Endpoint Assay: Fab′2: 6 ng/µL
- Enzyme Activity Endpoint Assay: Fc: 0 ng/µL
- Enzyme Activity Endpoint Assay: IgG: 1530 ng/µL
- Enzyme Activity Endpoint Assay: scIgG: 0 ng/µL

B2: PRT-537 (protein)
chain: B1 chain with G10S, K30G, T66S, M71L, A128S, E143A, Y156S, M234I, V269E, G283P
- Enzyme Activity Endpoint Assay: Fab′2: 0 ng/µL
- Enzyme Activity Endpoint Assay: Fc: 0 ng/µL
- Enzyme Activity Endpoint Assay: IgG: 1000 ng/µL
- Enzyme Activity Endpoint Assay: scIgG: 0 ng/µL

B3: PRT-41 (protein)
chain: MANQEIRYSEVTPYHVTSVWTKGVTPPANFTQGEDVFHAPYVANQGWYDITKTFNGKDDLLCGAATAGNMLHWWFDQNKDYIDRYLEEHPEKQKINFNGEQMFDVKEAIDTKNSQLDSKLFEYFKEKAFPYLSTKHLGVFPDLVLDMFINGYRLSLTNHGPTPVKEGSKDPRGGIFDAVFTRGDQSKLLTSRHDFKEKNLKEISDLIKKELTEGKALGLSHTYANVRINHVINLWGADFDSNGNLKAIYVTDSDSNASIGMKKYFVGVNSAGKVAISAKEIKEDNIGAQVLGLFTLSTGQDSWNQTN
- Enzyme Activity Endpoint Assay: Fab′2: 24 ng/µL
- Enzyme Activity Endpoint Assay: Fc: 94 ng/µL
- Enzyme Activity Endpoint Assay: IgG: 19 ng/µL
- Enzyme Activity Endpoint Assay: scIgG: 50 ng/µL

B4: PRT-44 (protein)
chain: B3 chain with K57G, Y81Q, L116T, I175F, A178D
- Enzyme Activity Endpoint Assay: Fab′2: 3 ng/µL
- Enzyme Activity Endpoint Assay: Fc: 78 ng/µL
- Enzyme Activity Endpoint Assay: IgG: 14 ng/µL
- Enzyme Activity Endpoint Assay: scIgG: 60 ng/µL

B5: PRT-49 (protein)
chain: B3 chain with Q93A, S114D, L116T, L143H, L145I, I175F, A178D, T181G, I259V
- Enzyme Activity Endpoint Assay: Fab′2: 30 ng/µL
- Enzyme Activity Endpoint Assay: Fc: 96 ng/µL
- Enzyme Activity Endpoint Assay: IgG: 18 ng/µL
- Enzyme Activity Endpoint Assay: scIgG: 40 ng/µL

B6: PRT-42 (protein)
chain: B3 chain with Y81Q, S114D, L145I, I175F
- Enzyme Activity Endpoint Assay: Fab′2: 0 ng/µL
- Enzyme Activity Endpoint Assay: Fc: 54 ng/µL
- Enzyme Activity Endpoint Assay: IgG: 26 ng/µL
- Enzyme Activity Endpoint Assay: scIgG: 53 ng/µL

B7: PRT-45 (protein)
chain: B3 chain with K57G, D80E, Y81Q, L116T, K201E
- Enzyme Activity Endpoint Assay: Fab′2: 3 ng/µL
- Enzyme Activity Endpoint Assay: Fc: 76 ng/µL
- Enzyme Activity Endpoint Assay: IgG: 8 ng/µL
- Enzyme Activity Endpoint Assay: scIgG: 67 ng/µL

B8: PRT-47 (protein)
chain: B3 chain with T51N, K57G, Y81Q, E87K, Q93A, S114D, L116T, D117N, I175F, I259V
- Enzyme Activity Endpoint Assay: Fab′2: 0 ng/µL
- Enzyme Activity Endpoint Assay: Fc: 5 ng/µL
- Enzyme Activity Endpoint Assay: IgG: 132 ng/µL
- Enzyme Activity Endpoint Assay: scIgG: 0 ng/µL

B9: PRT-43 (protein)
chain: B3 chain with Y81Q, S114D, L116T, L145I, F195L
- Enzyme Activity Endpoint Assay: Fab′2: 23 ng/µL
- Enzyme Activity Endpoint Assay: Fc: 89 ng/µL
- Enzyme Activity Endpoint Assay: IgG: 13 ng/µL
- Enzyme Activity Endpoint Assay: scIgG: 32 ng/µL

B10: PRT-46 (protein)
chain: B3 chain with Y81Q, Q93A, S114D, I175F, K263R
- Enzyme Activity Endpoint Assay: Fab′2: 20 ng/µL
- Enzyme Activity Endpoint Assay: Fc: 101 ng/µL
- Enzyme Activity Endpoint Assay: IgG: 15 ng/µL
- Enzyme Activity Endpoint Assay: scIgG: 39 ng/µL

B11: PRT-3 (protein)
chain: MRNATEAYAKEVPHQITSVWTKGVTPLTPEQFRYNNEDVIHAPYLAHQGWYDITKAFDGKDNLLCGAATAGNMLHWWFDQNKTEIEAYLSKHPEKQKIIFNNQELFDLKAAIDTKDSQTNSQLFNYFRDKAFPNLSARQLGVMPDLVLDMFINGYYLNVFKTQSTDVNRPYQDKDKRGGIFDAVFTRGDQTTLLTARHDLKNKGLNDISTIIKQELTEGRALALSHTYANVSISHVINLWGADFNAEGNLEAIYVTDSDANASIGMKKYFVGINAHGHVAISAKKIEGENIGAQVLGLFTLSSGKDIWQKLS
- Enzyme Activity Endpoint Assay: Fab′2: 14 ng/µL
- Enzyme Activity Endpoint Assay: Fc: 72 ng/µL
- Enzyme Activity Endpoint Assay: IgG: 11 ng/µL
- Enzyme Activity Endpoint Assay: scIgG: 33 ng/µL

B12: PRT-548 (protein)
chain: MANQEIRYSEETPKTITSVWTKGVTPPTDFIKNEDVLHAPYIANQGWYDITKTFNGKDDLLCGAATAGNMLHWWFDQNKEEIENYLKKHPEKQKINFNGEQMFDVKEAIDTKDSQTDSALFEYFKDKAFPYLSTKHLGVFPDHVIDMFINGYRLSLTNHGPTPVKRGTKDPRGGIFDAVFTRGDQTKLLTARHDFKEKTLNEISDLIKQELTEGKALGLSHTYANVRINHVINLWGADFNSEGNLEAIYVTDSDSNASIGMKKYYVGVNAAGKVAISAKEIEGDNIGAQVLGLFTLSTGQDIWEQTNLEHHHHHH
- Enzyme Activity Endpoint Assay: Fab′2: 727 ng/µL
- Enzyme Activity Endpoint Assay: Fc: 458 ng/µL
- Enzyme Activity Endpoint Assay: IgG: 0 ng/µL
- Enzyme Activity Endpoint Assay: scIgG: 0 ng/µL

B13: PRT-593 (protein)
chain: B12 chain with K14S, K32Q, E81Q, S114H, T186S, A191S, S241A, A270S, E304N
- Enzyme Activity Endpoint Assay: Fab′2: 797 ng/µL
- Enzyme Activity Endpoint Assay: Fc: 396 ng/µL
- Enzyme Activity Endpoint Assay: IgG: 0 ng/µL
- Enzyme Activity Endpoint Assay: scIgG: 0 ng/µL

B14: PRT-560 (protein)
chain: B12 chain with K32Y, E81Q, N84R, G167Q, T186S, A191S, N201K, N240D, S241A, A270S
- Enzyme Activity Endpoint Assay: Fab′2: 210 ng/µL
- Enzyme Activity Endpoint Assay: Fc: 233 ng/µL
- Enzyme Activity Endpoint Assay: IgG: 41 ng/µL
- Enzyme Activity Endpoint Assay: scIgG: 312 ng/µL

B15: PRT-591 (protein)
chain: B12 chain with K14S, K32Q, E81Q, E83K, T186S, A191S, S241A, A270S, E304N
- Enzyme Activity Endpoint Assay: Fab′2: 0 ng/µL
- Enzyme Activity Endpoint Assay: Fc: 34 ng/µL
- Enzyme Activity Endpoint Assay: IgG: 671 ng/µL
- Enzyme Activity Endpoint Assay: scIgG: 0 ng/µL

B16: PRT-287 (protein)
chain: MVTSVWTKGVTPPAKFTQGEDVFHAPYVANQGWYDITKEFNGKDDLLCGAATAGNMLHWWFDQNKEKIEAYLKKHPDKQKIMFGDQELLDVRKVINTKGDQTNSELFNYFRDKAFPNLSARRIGVMPDLVLDMFINGYYLNVYKTQTTDVNRTYQEKDRRGGIFDAVFTRGDQSKLLTSRHDFKEKNLKEISDLIKKELTEGKALGLSHTYANVRIGHVINLWGADFDSNGNLKAIYVTDSDSNASIGMKKYGVGVNSAGKVAISAKEIKEDNIGAQVLGLFTLSTGQDSWNQTN
- Enzyme Activity Endpoint Assay: Fab′2: 700 ng/µL
- Enzyme Activity Endpoint Assay: Fc: 392 ng/µL
- Enzyme Activity Endpoint Assay: IgG: 0 ng/µL
- Enzyme Activity Endpoint Assay: scIgG: 0 ng/µL

B17: PRT-48 (protein)
chain: MANQEIRYSEVTPYHVTSVWTKGVTPPANFTQGEDVFHAPYKANQGWYDINKTFNGGDDLLCGAATAGNMLHWWFDQNKDYIDRYLEEHPEKQKINFNGEQMFDVKEAIDTKNNQTDSKLFEYFKEKAFPYLSTKHLGVFPDRVIDMFINGYRLSLTNHGPTPVKEGSKDPRGGFFDDVFTRGDQSKLLTSRHDFKEKNLKEISDLIKKELKEGKALGLSHTYANVRINHVINLWGADFDSNGNLKAIYVTDSDSNASVGMKKYRVGVNSAGKVAISAKEIKEDNIGAQVLGLFTLSTGQDSWNQTN
- Enzyme Activity Endpoint Assay: Fab′2: 0 ng/µL
- Enzyme Activity Endpoint Assay: Fc: 5 ng/µL
- Enzyme Activity Endpoint Assay: IgG: 141 ng/µL
- Enzyme Activity Endpoint Assay: scIgG: 0 ng/µL

B18: PRT-279 (protein)
chain: MVTSVWTKGVTPPTDFIYGEDVLHAPYKAGQGWYDITKLFNGKDNLLCGAATAGNMLHWWFDQNKEQIENYLKKHPEKQKIIFNNQELFDLKAAIDTKDSQLDSKLFEYFLEKAFPYLSTKHLGVFPDHVIDMFINGYRLSLTNHGPTPVKRGSKDKRGGIFDAVFTRGVQSKLLTNRHDLKNKTLKEISDLIKQELTEGKALGISHTYANVRINHVINLWGADFDAEGNLEAIAVTDSDTNASIGMKKYFVGVNSSGKVAISAKEIEEDNIGAQVLGLFTLSTGQDIWNQTN
- Enzyme Activity Endpoint Assay: Fab′2: 574 ng/µL
- Enzyme Activity Endpoint Assay: Fc: 359 ng/µL
- Enzyme Activity Endpoint Assay: IgG: 48 ng/µL
- Enzyme Activity Endpoint Assay: scIgG: 0 ng/µL

B19: PRT-569 (protein)
chain: MANQEIRYSKATPSHITSVWTKGVTPPEQFIYNEDVLHAPYIANQGWYDITKTFNGKDDLLCGAATAGNMLHWWFDQNKEQIENYLKKHPEKQKINFNGEQMFDVKEAIDTKDSQTNSALFSYFKDKAFPYLSTKHLGVFPDHVIDMFINGYRLSLTNHGPTPVKEQTKDPRGGIFDAVFTRGDQSKLLTSRHDFKEKTLNEISQLIKQELTEGKALGLSHTYANVRINHVINLWGADFNAEGNLEAIYVTDSDSNASIGMKKYYVGVNSAGKVAISAKEIEGDNIGAQVLGLFTLSTGQDIWQQTNLEHHHHHH
- Enzyme Activity Endpoint Assay: Fab′2: 723 ng/µL
- Enzyme Activity Endpoint Assay: Fc: 294 ng/µL
- Enzyme Activity Endpoint Assay: IgG: 0 ng/µL
- Enzyme Activity Endpoint Assay: scIgG: 0 ng/µL

B20: PRT-50 (protein)
chain: MANQEIRYSEVTPYHVTSVWTKGVTPPANFTQGEDVFHAPYVANQGWYDINKTFNGKDDLLCGAATAGNMLHWWFDQNKEQIERYLKEHPEKGKINFNGEQMFDVKEAIDTKNNQTDSKLFEYFKEKAFPYLSTKHLGVFPDRVLDMFINGYRLSLTNHGPTPVKEGSKDPRGGFFDDVFGRGDQSKLLTSRHDFKEKNLEEISDLIKKELTEGKALGLSHTYANVRINHVINLWGADFDSNGNLKAIYVTDSDSNASVGMKKYFVGVNSAGKVAISAKEIKEDNIGAQVLGLFTLSTGQDSWNQTN
- Enzyme Activity Endpoint Assay: Fab′2: 0 ng/µL
- Enzyme Activity Endpoint Assay: Fc: 5 ng/µL
- Enzyme Activity Endpoint Assay: IgG: 135 ng/µL
- Enzyme Activity Endpoint Assay: scIgG: 0 ng/µL
